Measured values taken from the supplement of paper PMC7125110.
± gives the standard error. Variants at the floor of the assay were thinned out.

B1: glmS ribozyme (parent)
chain: AUAAAAGCGCCAGAACUACAGAAAUGUAGUUGACGAGGAGGAGGUUUAUCGAAUUUUCGGCGGAUGCCUCCAAA

How the values were obtained:
Conditions in all cases: with glucosamine-6-phosphate
[1] = variants of: B1; assay: self-cleavage kobs at 40 uM GlcN6P; higher = faster cleavage; RNA array
In short: (§1)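 In situ transcription by E. coli RNA polymerase produced barcoded ribozyme variants on sequenced MiSeq chips, and a hybridised Cy3 probe tracked them at 37 °C. Glucosamine-6-phosphate was flowed in at 40 μM to 10 mM in HEPES/KCl/Mg(OAc)2 buffer. kcat and KM were taken from weighted Michaelis–Menten fits of kobs values from exponential decay fits.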

[2] = variants of: B1; assay: self-cleavage kobs at 160 uM GlcN6P; higher = faster cleavage; RNA array
In short: as §1

[3] = variants of: B1; assay: self-cleavage kobs at 640 uM GlcN6P; higher = faster cleavage; RNA array
In short: as §1

[4] = variants of: B1; assay: self-cleavage kobs at 2500 uM GlcN6P; higher = faster cleavage; RNA array
In short: as §1

[5] = variants of: B1; assay: self-cleavage kobs at 10000 uM GlcN6P; higher = faster cleavage; RNA array
In short: as §1

AUAAAAGCGCCAGAACUACAGAAAUGUAGUUGACGAGGAGGAGGUUUUUCGAAUUAUAGGCGGAUGCCUCCAAA [A48U U56A C58A]
self-cleavage kobs at 40 uM GlcN6P [1]: < 1e-05 s⁻¹

AUAAAAGCGCCAGAGCUACAGAAAUGUAGUUGACGAGGAGGAGGUUUAUCGAAUUUUCGGCGGGUGCCUCCAAA [A15G A64G]
self-cleavage kobs at 40 uM GlcN6P [1]: 0.000819 ± 0.00013 s⁻¹
self-cleavage kobs at 160 uM GlcN6P [2]: 0.00196 ± 0.00048 s⁻¹
self-cleavage kobs at 640 uM GlcN6P [3]: 0.0063 ± 0.0012 s⁻¹
self-cleavage kobs at 2500 uM GlcN6P [4]: 0.00698 ± 0.0018 s⁻¹
self-cleavage kobs at 10000 uM GlcN6P [5]: 0.0604 ± 0.017 s⁻¹

AUAAAAUCGCCAGAACUACAGAAAUGUAGUUGACGAGGAGGAGGGUUAUCGAAUUUUCGGCGGAUGCCUCCAAA [G7U U45G]
self-cleavage kobs at 40 uM GlcN6P [1]: < 1e-05 s⁻¹
self-cleavage kobs at 160 uM GlcN6P [2]: < 1e-05 s⁻¹
self-cleavage kobs at 640 uM GlcN6P [3]: < 1e-05 s⁻¹
self-cleavage kobs at 2500 uM GlcN6P [4]: < 1e-05 s⁻¹
self-cleavage kobs at 10000 uM GlcN6P [5]: < 1e-05 s⁻¹

AUAAAAGCGCCAGAACUACAGAAAUGUAGUUGACGAGGGGGAGGUUUAUCGAAUUUUCGGCGGAGGGCUCCAAA [A39G U65G C67G]
self-cleavage kobs at 40 uM GlcN6P [1]: 0.000107 ± 2.4e-05 s⁻¹
self-cleavage kobs at 10000 uM GlcN6P [5]: 0.00497 ± 0.0012 s⁻¹

AUAAAAGCGCCAGAACUACAGAAAUGUAGUUGACGAGGAGGAGGUUAAUCGAAUUUUUGGCGGAUGCCUCCAAA [U47A C58U]
self-cleavage kobs at 40 uM GlcN6P [1]: < 1e-05 s⁻¹
self-cleavage kobs at 10000 uM GlcN6P [5]: 6e-05 ± 2.1e-05 s⁻¹

AUAAAAGCGUCAGUAGUACAGAAAUGUAGUUGACGAGGAGGAGGUUUAUCGAAUUUUCGGCGGAUGCCUCCAAA [C10U A14U C16G]
self-cleavage kobs at 40 uM GlcN6P [1]: < 1e-05 s⁻¹

AUAAAAGCGCCAGAACUACAGAAAUGUAGUUGACGAGGAGGAGGAUUAUCAAAUUUUCGGCGGAUGCCUCCAAA [U45A G51A]
self-cleavage kobs at 40 uM GlcN6P [1]: < 1e-05 s⁻¹
self-cleavage kobs at 160 uM GlcN6P [2]: < 1e-05 s⁻¹

AUAAAAGCGCCAGAACUACAGAAAUGUAGUUGACGAGGAGGAGGUUUAUCGAAUUUGCCGCGGAUGCCUCCAAA [U57G G59C]
self-cleavage kobs at 40 uM GlcN6P [1]: < 1e-05 s⁻¹
self-cleavage kobs at 640 uM GlcN6P [3]: < 1e-05 s⁻¹
self-cleavage kobs at 10000 uM GlcN6P [5]: < 1e-05 s⁻¹

AUAAAAUCGCCAGAACUACAGAAAUGUAAUUGACGAGGAGGAGGUUUGUCGAAUUUUCGGCGGAUGCCUCCAAA [G7U G29A A48G]
self-cleavage kobs at 40 uM GlcN6P [1]: < 1e-05 s⁻¹
self-cleavage kobs at 10000 uM GlcN6P [5]: < 1e-05 s⁻¹

AUAAAAGCGCCAGAACUACAGAAAUGUAGUUGACGAGGGGGAGGUUUAUCGAAGUUUCGGCGGAUGCCUCCAAA [A39G U54G]
self-cleavage kobs at 40 uM GlcN6P [1]: 0.00177 ± 0.00036 s⁻¹
self-cleavage kobs at 160 uM GlcN6P [2]: 0.00227 ± 0.00056 s⁻¹
self-cleavage kobs at 640 uM GlcN6P [3]: 0.00627 ± 0.0015 s⁻¹
self-cleavage kobs at 2500 uM GlcN6P [4]: 0.0305 ± 0.013 s⁻¹

AUAAAAGCGCCUGAACUACAGAAAUGUAGUUGACGAGGAGGAGGUUUAUCGAAAUUUCGGCGGAUGCCACCAAA [A12U U54A U69A]
self-cleavage kobs at 40 uM GlcN6P [1]: 0.000126 ± 4.4e-05 s⁻¹
self-cleavage kobs at 160 uM GlcN6P [2]: 0.000159 ± 4.6e-05 s⁻¹
self-cleavage kobs at 640 uM GlcN6P [3]: 0.000125 ± 2.7e-05 s⁻¹
self-cleavage kobs at 2500 uM GlcN6P [4]: 0.000458 ± 9.4e-05 s⁻¹
self-cleavage kobs at 10000 uM GlcN6P [5]: 0.000322 ± 6.8e-05 s⁻¹

AUAAAAGCGCCAGAACUACAGAAAUGUAGUUGACGAGGAGGAGGUUUAUGGAAUUUUCGGCGGAUACCUACAAA [C50G G66A C70A]
self-cleavage kobs at 40 uM GlcN6P [1]: 7.79e-05 ± 2.3e-05 s⁻¹

AUAAAAGCGCUAGACCUACAGAAAUGUAGUUGACGAGGAGGAGGUUUUUCGAAUUUUCGACGGAUGCCUCCAAA [C11U A15C A48U G60A]
self-cleavage kobs at 40 uM GlcN6P [1]: < 1e-05 s⁻¹
self-cleavage kobs at 10000 uM GlcN6P [5]: < 1e-05 s⁻¹
